In patent US20140304847:

What was measured:
ZFN-Rab38-L (artificial) = experiment: cell_activity; conditions: with ZFN-Rab38-R; 3 of 52 mice from mRNA-injected zygotes with Rab38-cht vector, no NHEJ inhibition
ZFN-Rab38-R (artificial) = experiment: cell_activity; conditions: with ZFN-Rab38-L; 3 of 52 mice from mRNA-injected zygotes with Rab38-cht vector, no NHEJ inhibition

Sequence | activity (% targeted mice) (ZFN-Rab38-L (artificial)) | activity (% targeted mice) (ZFN-Rab38-R (artificial))
ATGCAGACACCTCACAAGGAGCACCTGTACAAGCTGCTGGTGATCGGCGACCTGGGTGTGGGCAAGACCAGCATTATCAAGCGCTATGTGCACCAAAACTTCTCCTCGCACTACCGGGCCACCATTGGTGTGGACTTCGCGCTGAAGGTGCTCCACTGGGACCCAGAGACGGTGGTGCGCTTGCAGCTCTGGGACATTGCTG (double strand) [Rab38 exon 1 ZFN-L half-site] | 5 | –
ATGCAGACACCTCACAAGGAGCACCTGTACAAGCTGCTGGTGATCGGCGACCTGGGTGTGGGCAAGACCAGCATTATCAAGCGCTATGTGCACCAAAACTTCTCCTCGCACTACCGGGCCACCATTGGTGTGGACTTCGCGCTGAAGGTGCTCCACTGGGACCCAGAGACGGTGGTGCGCTTGCAGCTCTGGGACATTGCTG (double strand) [Rab38 exon 1 ZFN-R half-site] | – | 5
